In paper PMC9352680, “A comprehensive thermodynamic model for RNA binding by the Saccharomyces cerevisiae Pumilio protein PUF4”:

T1: PUF4 RNA-binding domain (Saccharomyces cerevisiae, UniProt P25339 537-888)
T1 sequence: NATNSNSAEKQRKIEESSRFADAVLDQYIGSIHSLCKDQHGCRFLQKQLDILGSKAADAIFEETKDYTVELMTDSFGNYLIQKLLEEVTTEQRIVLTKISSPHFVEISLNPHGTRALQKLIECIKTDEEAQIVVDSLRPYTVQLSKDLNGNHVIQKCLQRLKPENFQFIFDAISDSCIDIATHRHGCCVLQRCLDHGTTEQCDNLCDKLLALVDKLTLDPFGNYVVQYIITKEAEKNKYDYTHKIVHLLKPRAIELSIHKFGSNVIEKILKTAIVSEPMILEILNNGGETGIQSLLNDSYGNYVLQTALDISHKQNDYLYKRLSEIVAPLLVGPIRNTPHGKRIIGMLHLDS


Biological target: T1, PUF4 RNA-binding domain
Assay: Mg; RNA-MaP; 20 mM Na-HEPES pH 7.4, 30 mM KOAc, 0.75 mM MgCl2, 0.1% Tween-20, 5% glycerol, 0.1 mg/mL BSA, 2 mM DTT; 25 C; 0.0125-409.6 nM protein
Conditions: tags: N-His6-TEV cleaved; C-SNAP kept, Cy3B-labelled; label: tethered on chip by stalled RNA polymerase

| Binder | Kd [nM] |
| --- | --- |
| ACAAACCUACACUAUAUCACAAAC (ssRNA) [Id_ii_S3_P3E.4_K3.3_C3.2_H3.3_A3.1_F3.1_T3.2_[A10C]] | 1760 |
| ACAAACACUAUAUAUUAUCACAAAC (ssRNA) [Id_ii_S3_P4E.3_K4.2_C4.2_[C-2A]_[T-1C]_H4.2_A4.1_F4.1_T4.2_[G10T]_[T11C]] | 17.7 |
| ACAAACGAUAUAUAUUAAGACAAAC (ssRNA) [Id_ii_S3_P4E.3_K4.2_C4.2_[C-2G]_[T-1A]_H4.2_A4.1_F4.1_T4.2_[G10A]_[T11G]] | 76.8 |
| ACAAACGUUAUAUAUUAUUACAAAC (ssRNA) [Id_ii_S3_P4E.3_K4.2_C4.2_[C-2G]_H4.2_A4.1_F4.1_T4.2_[G10T]] | 31.6 |
| ACAAACGAUAUAUAUUAAAACAAAC (ssRNA) [Id_ii_S3_P4E.3_K4.2_C4.2_[C-2G]_[T-1A]_H4.2_A4.1_F4.1_T4.2_[G10A]_[T11A]] | 74.6 |
| ACAAACUUUAUAUAUUAACACAAAC (ssRNA) [Id_ii_S3_P4E.3_K4.2_C4.2_[C-2T]_H4.2_A4.1_F4.1_T4.2_[G10A]_[T11C]] | 29.5 |
| ACAAACAGUAUAUAUUAACACAAAC (ssRNA) [Id_ii_S3_P4E.3_K4.2_C4.2_[C-2A]_[T-1G]_H4.2_A4.1_F4.1_T4.2_[G10A]_[T11C]] | 38.8 |
| ACAAACGAUAUAUAUUAACACAAAC (ssRNA) [Id_ii_S3_P4E.3_K4.2_C4.2_[C-2G]_[T-1A]_H4.2_A4.1_F4.1_T4.2_[G10A]_[T11C]] | 52.9 |
| ACAAACGAUAUAUAUUACAACAAAC (ssRNA) [Id_ii_S3_P4E.3_K4.2_C4.2_[C-2G]_[T-1A]_H4.2_A4.1_F4.1_T4.2_[G10C]_[T11A]] | 50.4 |
| ACAAACAGUAUAUAUUAGGACAAAC (ssRNA) [Id_ii_S3_P4E.3_K4.2_C4.2_[C-2A]_[T-1G]_H4.2_A4.1_F4.1_T4.2_[T11G]] | 20.3 |
| UCUCUUUGUAUCAUUUUCUCUU (ssRNA) [Ib_S1_P5E.1_K5.1_C5.1_H5.1_A5.1_[T6C]_F5.1_[A10T]_T5.1] | 7.85 |
| ACAAACAAUAUAUAUUAGCACAAAC (ssRNA) [Id_ii_S3_P4E.3_K4.2_C4.2_[C-2A]_[T-1A]_H4.2_A4.1_F4.1_T4.2_[T11C]] | 11.9 |
| ACAAACGUUAUAUAUUAUCACAAAC (ssRNA) [Id_ii_S3_P4E.3_K4.2_C4.2_[C-2G]_H4.2_A4.1_F4.1_T4.2_[G10T]_[T11C]] | 42.4 |
| ACAAACACUAUAUAUUAUGACAAAC (ssRNA) [Id_ii_S3_P4E.3_K4.2_C4.2_[C-2A]_[T-1C]_H4.2_A4.1_F4.1_T4.2_[G10T]_[T11G]] | 16.6 |
| ACAAACGCUAUAUAUUAUUACAAAC (ssRNA) [Id_ii_S3_P4E.3_K4.2_C4.2_[C-2G]_[T-1C]_H4.2_A4.1_F4.1_T4.2_[G10T]] | 14.4 |
| ACAAACACUAUAUAUUACCACAAAC (ssRNA) [Id_ii_S3_P4E.3_K4.2_C4.2_[C-2A]_[T-1C]_H4.2_A4.1_F4.1_T4.2_[G10C]_[T11C]] | 33.5 |
| UCUCUUUGUAUUCUUGUCUCUU (ssRNA) [Ib_S1_P5E.1_K5.1_C5.1_H5.1_A5.1_[A7C]_F5.1_[A10G]_T5.1] | 20.4 |
| ACAAACAAUAUAUAUUAUCACAAAC (ssRNA) [Id_ii_S3_P4E.3_K4.2_C4.2_[C-2A]_[T-1A]_H4.2_A4.1_F4.1_T4.2_[G10T]_[T11C]] | 70.9 |
| ACAAACAAUAUAUAUUACGACAAAC (ssRNA) [Id_ii_S3_P4E.3_K4.2_C4.2_[C-2A]_[T-1A]_H4.2_A4.1_F4.1_T4.2_[G10C]_[T11G]] | 43.6 |
| ACAAACGCUAUAUAUUAAUACAAAC (ssRNA) [Id_ii_S3_P4E.3_K4.2_C4.2_[C-2G]_[T-1C]_H4.2_A4.1_F4.1_T4.2_[G10A]] | 19.9 |
| ACAAACGAUAUAUAUUAAUACAAAC (ssRNA) [Id_ii_S3_P4E.3_K4.2_C4.2_[C-2G]_[T-1A]_H4.2_A4.1_F4.1_T4.2_[G10A]] | 40.7 |
| ACAAACGAUAUAUAUUAUGACAAAC (ssRNA) [Id_ii_S3_P4E.3_K4.2_C4.2_[C-2G]_[T-1A]_H4.2_A4.1_F4.1_T4.2_[G10T]_[T11G]] | 48.6 |
| ACAAACACUAUAUAUUACUACAAAC (ssRNA) [Id_ii_S3_P4E.3_K4.2_C4.2_[C-2A]_[T-1C]_H4.2_A4.1_F4.1_T4.2_[G10C]] | 17.6 |
| UCUCUUUGUAUAAUUCUCUCUU (ssRNA) [Ib_S1_P5E.1_K5.1_C5.1_H5.1_A5.1_[T6A]_F5.1_[A10C]_T5.1] | 10.6 |
| UCUCUUUGUACUAUUAUCUCUU (ssRNA) [Ie_S1_P4E.1_K4.1_C4.1_H4.1_[+4C]_A4.1_F4.1_T4.1] | 4.49 |

| Binder | Kd [nM] |
| --- | --- |
| UCUCUUUGUAUGAUUUUCUCUU (ssRNA) [Ib_S1_P5E.1_K5.1_C5.1_H5.1_A5.1_[T6G]_F5.1_[A10T]_T5.1] | 39.5 |
| ACAAACUUUAUAUAUUAUAACAAAC (ssRNA) [Id_ii_S3_P4E.3_K4.2_C4.2_[C-2T]_H4.2_A4.1_F4.1_T4.2_[G10T]_[T11A]] | 18.1 |
| ACAAACUAUAUAUAUUAACACAAAC (ssRNA) [Id_ii_S3_P4E.3_K4.2_C4.2_[C-2T]_[T-1A]_H4.2_A4.1_F4.1_T4.2_[G10A]_[T11C]] | 32.9 |
| ACAAACGUUAUAUAUUACUACAAAC (ssRNA) [Id_ii_S3_P4E.3_K4.2_C4.2_[C-2G]_H4.2_A4.1_F4.1_T4.2_[G10C]] | 58 |
| ACAAACAGUAUAUAUUAUCACAAAC (ssRNA) [Id_ii_S3_P4E.3_K4.2_C4.2_[C-2A]_[T-1G]_H4.2_A4.1_F4.1_T4.2_[G10T]_[T11C]] | 25.5 |
| ACAAACACUAUAUAUUAAAACAAAC (ssRNA) [Id_ii_S3_P4E.3_K4.2_C4.2_[C-2A]_[T-1C]_H4.2_A4.1_F4.1_T4.2_[G10A]_[T11A]] | 34 |
| ACAAACUCUAUAUAUUAUGACAAAC (ssRNA) [Id_ii_S3_P4E.3_K4.2_C4.2_[C-2T]_[T-1C]_H4.2_A4.1_F4.1_T4.2_[G10T]_[T11G]] | 14.5 |
| ACAAACUAUAUAUAUUACGACAAAC (ssRNA) [Id_ii_S3_P4E.3_K4.2_C4.2_[C-2T]_[T-1A]_H4.2_A4.1_F4.1_T4.2_[G10C]_[T11G]] | 27.8 |
| ACAAACGCUAUAUAUUACCACAAAC (ssRNA) [Id_ii_S3_P4E.3_K4.2_C4.2_[C-2G]_[T-1C]_H4.2_A4.1_F4.1_T4.2_[G10C]_[T11C]] | 27.1 |
| ACAAACACUAUAUAUUAUAACAAAC (ssRNA) [Id_ii_S3_P4E.3_K4.2_C4.2_[C-2A]_[T-1C]_H4.2_A4.1_F4.1_T4.2_[G10T]_[T11A]] | 20.5 |
| ACAAACACUAUAUAUUAACACAAAC (ssRNA) [Id_ii_S3_P4E.3_K4.2_C4.2_[C-2A]_[T-1C]_H4.2_A4.1_F4.1_T4.2_[G10A]_[T11C]] | 29.6 |
| ACAAACUCUAUAUAUUAUCACAAAC (ssRNA) [Id_ii_S3_P4E.3_K4.2_C4.2_[C-2T]_[T-1C]_H4.2_A4.1_F4.1_T4.2_[G10T]_[T11C]] | 16.3 |
| ACAAACAAUAUAUAUUAAAACAAAC (ssRNA) [Id_ii_S3_P4E.3_K4.2_C4.2_[C-2A]_[T-1A]_H4.2_A4.1_F4.1_T4.2_[G10A]_[T11A]] | 108 |
| ACAAACGGUAUAUAUUAAGACAAAC (ssRNA) [Id_ii_S3_P4E.3_K4.2_C4.2_[C-2G]_[T-1G]_H4.2_A4.1_F4.1_T4.2_[G10A]_[T11G]] | 48.8 |
| ACAAACUUUAUAUAUUAUCACAAAC (ssRNA) [Id_ii_S3_P4E.3_K4.2_C4.2_[C-2T]_H4.2_A4.1_F4.1_T4.2_[G10T]_[T11C]] | 16.5 |
| ACAAACGCUAUAUAUUACAACAAAC (ssRNA) [Id_ii_S3_P4E.3_K4.2_C4.2_[C-2G]_[T-1C]_H4.2_A4.1_F4.1_T4.2_[G10C]_[T11A]] | 24.5 |
| ACAAACAAUAUAUAUUACUACAAAC (ssRNA) [Id_ii_S3_P4E.3_K4.2_C4.2_[C-2A]_[T-1A]_H4.2_A4.1_F4.1_T4.2_[G10C]] | 28.2 |
| UCUCUUUGUAUGAUUCUCUCUU (ssRNA) [Ib_S1_P5E.1_K5.1_C5.1_H5.1_A5.1_[T6G]_F5.1_[A10C]_T5.1] | 90 |
| ACAAACUCUAUAUAUUAUAACAAAC (ssRNA) [Id_ii_S3_P4E.3_K4.2_C4.2_[C-2T]_[T-1C]_H4.2_A4.1_F4.1_T4.2_[G10T]_[T11A]] | 15.5 |
| ACAAACGCUAUAUAUUAUCACAAAC (ssRNA) [Id_ii_S3_P4E.3_K4.2_C4.2_[C-2G]_[T-1C]_H4.2_A4.1_F4.1_T4.2_[G10T]_[T11C]] | 20.1 |
| ACAAACGAUAUAUAUUAUAACAAAC (ssRNA) [Id_ii_S3_P4E.3_K4.2_C4.2_[C-2G]_[T-1A]_H4.2_A4.1_F4.1_T4.2_[G10T]_[T11A]] | 41.7 |
| ACAAACUUUAUAUAUUACGACAAAC (ssRNA) [Id_ii_S3_P4E.3_K4.2_C4.2_[C-2T]_H4.2_A4.1_F4.1_T4.2_[G10C]_[T11G]] | 19.4 |
| ACAAACAGUAUAUAUUAGAACAAAC (ssRNA) [Id_ii_S3_P4E.3_K4.2_C4.2_[C-2A]_[T-1G]_H4.2_A4.1_F4.1_T4.2_[T11A]] | 11.3 |
| ACAAACGAUAUAUAUUACCACAAAC (ssRNA) [Id_ii_S3_P4E.3_K4.2_C4.2_[C-2G]_[T-1A]_H4.2_A4.1_F4.1_T4.2_[G10C]_[T11C]] | 53.1 |
